The record followed here is patent US7029676B2.

The target in assay [1] is Human E-cadherin (human).
Assay [2] has as its target Human E-cadherin (human). This is another data set of the same source.
Assay [3] concerns the target Human E-cadherin (human). The source holds these as a separate data set.
Assay [4] deals with Human E-cadherin (human). This is another data set of the same source.
Assay [5] deals with integrin β1 subunit (human) (UniProt P05556).

In the case of “α^Eβ7 integrin (from UniProt P38570) (receptor)”, the adhesion of IEL to L-M monolayers (percent of IEL bound) in the assay with Human E-cadherin (human) [1] came to 89%. This substance also came in with an adhesion of COS-7 transfectants to 16E6.A5 monolayers with Human E-cadherin (human) [2] of 267%. This substance also registered an adhesion of COS-7 transfectants to L-M E-cadherin transfectants with Human E-cadherin (human) [3] of 81%. In addition, in the assay with Human E-cadherin (human) [4], the adhesion of α^Eβ7 COS-7 transfectants to L-M monolayers is 79%.

Substance “α^4β7 integrin (from UniProt P13612) (receptor)” had an adhesion of COS-7 transfectants to 16E6.A5 monolayers (percent bound) with Human E-cadherin (human) [2] of 9%. The same substance registered an adhesion of COS-7 transfectants to L-M E-cadherin transfectants (percent bound) in the assay with Human E-cadherin (human) [3] of 16%.

Consider 4B4 (antibody), for which the inhibition of IEL adhesion to the 16E6.A5 epithelial cell monolayer in assay [5] was 21%.
